# ± gives the standard deviation of the averaged measurements.
# B1: library; a variant is named by its letters at N, in order (parent)
# chain: GCUGUCACCGAGAAACUGUGAAGUAUAUCUUAAACCUGGGCACUUAAAAGAUAUAUGGAGUUAGUAGUGCAACCUGCUCGGUCUGAUGAGUCCNNNNNNGGACGAAACAGC
# Tests used:
# cyclic di-GMP [1] = variants of: B1; experiment: normalized RNA/DNA level without ligand (relative to sTRSVctl = 100) (log10 (% of sTRSVctl)); HEK293T; ligand: cyclic di-GMP (c-di-GMP-II aptamer); higher = less ribozyme self-cleavage, higher mRNA level; settings: reporter: mCherry (pCS4076), ligand present: no
# Outline: (§1)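 HEK293T cells were transfected with library plasmids carrying ribozyme switches linked to an mCherry reporter, or an eGFP reporter in some ligand experiments, at 4 µg per well of a 6-well plate, with any ligand added 1 h beforehand. After 72 h, total RNA was extracted with EDTA, reverse-transcribed, amplified, barcoded and sequenced. RNA level was defined as RNA reads over DNA reads, normalized to a spiked-in non-cleaving sequence or to the top-ranked sequences. That value was multiplied by 100 and converted to log10, the top set was 25 sequences, and only sequences with ≥100 DNA reads were retained.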
# cyclic di-GMP [2] = variants of: B1; experiment: normalized RNA/DNA level with ligand (relative to sTRSVctl = 100) (log10 (% of sTRSVctl)); HEK293T; ligand: cyclic di-GMP (c-di-GMP-II aptamer); ligand concentration (+) RNA-Seq: 1 mM; higher = less ribozyme self-cleavage, higher mRNA level; settings: reporter: mCherry (pCS4076), ligand present: yes
# Outline: as §1
Variant,normalized RNA/DNA level without ligand (log10) (cyclic di-GMP [1]),normalized RNA/DNA level with ligand (log10) (cyclic di-GMP [2])
GCUGUCACCGAGAAACUGUGAAGUAUAUCUUAAACCUGGGCACUUAAAAGAUAUAUGGAGUUAGUAGUGCAACCUGCUCGGUCUGAUGAGUCCACGAAUGGACGAAACAGC,1.31 ± 0.061,1.53 ± 0.079
GCUGUCACCGAGAAACUGUGAAGUAUAUCUUAAACCUGGGCACUUAAAAGAUAUAUGGAGUUAGUAGUGCAACCUGCUCGGUCUGAUGAGUCCACGAACGGACGAAACAGC,1.53 ± 0.11,1.72 ± 0.067
GCUGUCACCGAGAAACUGUGAAGUAUAUCUUAAACCUGGGCACUUAAAAGAUAUAUGGAGUUAGUAGUGCAACCUGCUCGGUCUGAUGAGUCCGCGAACGGACGAAACAGC,1.28 ± 0.15,1.54 ± 0.052
GCUGUCACCGAGAAACUGUGAAGUAUAUCUUAAACCUGGGCACUUAAAAGAUAUAUGGAGUUAGUAGUGCAACCUGCUCGGUCUGAUGAGUCCGCGAAGGGACGAAACAGC,1.45 ± 0.068,1.63 ± 0.087
GCUGUCACCGAGAAACUGUGAAGUAUAUCUUAAACCUGGGCACUUAAAAGAUAUAUGGAGUUAGUAGUGCAACCUGCUCGGUCUGAUGAGUCCGCGAAAGGACGAAACAGC,1.34 ± 0.099,1.56 ± 0.096
GCUGUCACCGAGAAACUGUGAAGUAUAUCUUAAACCUGGGCACUUAAAAGAUAUAUGGAGUUAGUAGUGCAACCUGCUCGGUCUGAUGAGUCCCCGACGGGACGAAACAGC,1.6 ± 0.089,1.79 ± 0.052
GCUGUCACCGAGAAACUGUGAAGUAUAUCUUAAACCUGGGCACUUAAAAGAUAUAUGGAGUUAGUAGUGCAACCUGCUCGGUCUGAUGAGUCCCCGACUGGACGAAACAGC,1.59 ± 0.082,1.74 ± 0.077
GCUGUCACCGAGAAACUGUGAAGUAUAUCUUAAACCUGGGCACUUAAAAGAUAUAUGGAGUUAGUAGUGCAACCUGCUCGGUCUGAUGAGUCCACGACUGGACGAAACAGC,1.51 ± 0.085,1.73 ± 0.14
GCUGUCACCGAGAAACUGUGAAGUAUAUCUUAAACCUGGGCACUUAAAAGAUAUAUGGAGUUAGUAGUGCAACCUGCUCGGUCUGAUGAGUCCACGACGGGACGAAACAGC,1.57 ± 0.058,1.74 ± 0.082
GCUGUCACCGAGAAACUGUGAAGUAUAUCUUAAACCUGGGCACUUAAAAGAUAUAUGGAGUUAGUAGUGCAACCUGCUCGGUCUGAUGAGUCCACGACAGGACGAAACAGC,1.52 ± 0.087,1.74 ± 0.085
GCUGUCACCGAGAAACUGUGAAGUAUAUCUUAAACCUGGGCACUUAAAAGAUAUAUGGAGUUAGUAGUGCAACCUGCUCGGUCUGAUGAGUCCUCGACGGGACGAAACAGC,1.73 ± 0.0042,1.87 ± 0.099
GCUGUCACCGAGAAACUGUGAAGUAUAUCUUAAACCUGGGCACUUAAAAGAUAUAUGGAGUUAGUAGUGCAACCUGCUCGGUCUGAUGAGUCCUCGACUGGACGAAACAGC,1.6114 ± 7.1e-07,1.82 ± 0.12
GCUGUCACCGAGAAACUGUGAAGUAUAUCUUAAACCUGGGCACUUAAAAGAUAUAUGGAGUUAGUAGUGCAACCUGCUCGGUCUGAUGAGUCCUCGACAGGACGAAACAGC,1.619 ± 0.0042,1.77 ± 0.12
GCUGUCACCGAGAAACUGUGAAGUAUAUCUUAAACCUGGGCACUUAAAAGAUAUAUGGAGUUAGUAGUGCAACCUGCUCGGUCUGAUGAGUCCUCGAACGGACGAAACAGC,1.62 ± 0.026,1.76 ± 0.1
GCUGUCACCGAGAAACUGUGAAGUAUAUCUUAAACCUGGGCACUUAAAAGAUAUAUGGAGUUAGUAGUGCAACCUGCUCGGUCUGAUGAGUCCUCGAAGGGACGAAACAGC,1.52 ± 0.097,1.74 ± 0.058
GCUGUCACCGAGAAACUGUGAAGUAUAUCUUAAACCUGGGCACUUAAAAGAUAUAUGGAGUUAGUAGUGCAACCUGCUCGGUCUGAUGAGUCCUCGAAUGGACGAAACAGC,1.45 ± 0.1,1.69 ± 0.059
GCUGUCACCGAGAAACUGUGAAGUAUAUCUUAAACCUGGGCACUUAAAAGAUAUAUGGAGUUAGUAGUGCAACCUGCUCGGUCUGAUGAGUCCACCUUGGGACGAAACAGC,1.7 ± 0.065,1.81 ± 0.063
GCUGUCACCGAGAAACUGUGAAGUAUAUCUUAAACCUGGGCACUUAAAAGAUAUAUGGAGUUAGUAGUGCAACCUGCUCGGUCUGAUGAGUCCACCUUUGGACGAAACAGC,1.63 ± 0.02,1.82 ± 0.081
GCUGUCACCGAGAAACUGUGAAGUAUAUCUUAAACCUGGGCACUUAAAAGAUAUAUGGAGUUAGUAGUGCAACCUGCUCGGUCUGAUGAGUCCUCCUUUGGACGAAACAGC,1.75 ± 0.021,1.9 ± 0.073
GCUGUCACCGAGAAACUGUGAAGUAUAUCUUAAACCUGGGCACUUAAAAGAUAUAUGGAGUUAGUAGUGCAACCUGCUCGGUCUGAUGAGUCCUCCUUGGGACGAAACAGC,1.74 ± 0.036,1.86 ± 0.082
GCUGUCACCGAGAAACUGUGAAGUAUAUCUUAAACCUGGGCACUUAAAAGAUAUAUGGAGUUAGUAGUGCAACCUGCUCGGUCUGAUGAGUCCGCCUUUGGACGAAACAGC,1.69 ± 0.051,1.88 ± 0.14
GCUGUCACCGAGAAACUGUGAAGUAUAUCUUAAACCUGGGCACUUAAAAGAUAUAUGGAGUUAGUAGUGCAACCUGCUCGGUCUGAUGAGUCCCCCUUUGGACGAAACAGC,1.61 ± 0.053,1.83 ± 0.096
GCUGUCACCGAGAAACUGUGAAGUAUAUCUUAAACCUGGGCACUUAAAAGAUAUAUGGAGUUAGUAGUGCAACCUGCUCGGUCUGAUGAGUCCCCGAACGGACGAAACAGC,1.56 ± 0.058,1.72 ± 0.12
GCUGUCACCGAGAAACUGUGAAGUAUAUCUUAAACCUGGGCACUUAAAAGAUAUAUGGAGUUAGUAGUGCAACCUGCUCGGUCUGAUGAGUCCCCGAAUGGACGAAACAGC,1.48 ± 0.13,1.68 ± 0.11
GCUGUCACCGAGAAACUGUGAAGUAUAUCUUAAACCUGGGCACUUAAAAGAUAUAUGGAGUUAGUAGUGCAACCUGCUCGGUCUGAUGAGUCCGCGACAGGACGAAACAGC,1.52 ± 0.091,1.73 ± 0.084
GCUGUCACCGAGAAACUGUGAAGUAUAUCUUAAACCUGGGCACUUAAAAGAUAUAUGGAGUUAGUAGUGCAACCUGCUCGGUCUGAUGAGUCCGCGACUGGACGAAACAGC,1.57 ± 0.018,1.73 ± 0.089
